Laboratory results reported in patent US20190358302A1.

Biological target: cation independent mannose-6-phosphate receptor (CIMPR)
Assay: immobilized CIMPR affinity column, elution with free M6P

“Fabrazyme (agalsidase beta) (from UniProt P06280 32-429) (enzyme)” showed a % bound to CIMPR column of 90%.
